We go through twelve molecules from patent publication US20200199241A1 (Chugai, published 2020).

First the molecules themselves.
B1: IgG1-F1362 (antibody)
heavy: QVQLQESGPGLVKPSETLSLTCAVSGHSISHDHAWSWVRQPPGEGLEWIGFISYSGITNYNPSLQGRVTISRDNSKNTLYLQMNSLRAEDTAVYYCARSLARTTAMDYWGEGTLVTVSSASTKGPSVFPLAPSSKSTSGGTAALGCLVKDYFPEPVTVSWNSGALTSGVHTFPAVLQSSGLYSLSSVVTVPSSSLGTQTYICNVNHKPSNTKVDKKVEPKSCDKTHTCPPCPAPELRGGPKVFLFPPKPKDTLYITRTPEVTCVVVDVSHEDPEVKFNWYVDGVEVHNAKTKPREEQYNSTYRVVSVLTVLHQDWLNGKEYKCKVSNKALPAPIEKTISKAKGQPREPQVYTLPPSRDELTKNQVSLTCLVKGFYPSDIAVEWESNGQPENNYKTTPPVLDSDGSFFLYSKLTVDKSRWQQGNVFSCSVMHEALDYHFTKKELSLSP
light: not shown
notes: EU numbering; copies: 2 + 2
B2: IgG1-F1371 (antibody)
heavy: QVQLQESGPGLVKPSETLSLTCAVSGHSISHDHAWSWVRQPPGEGLEWIGFISYSGITNYNPSLQGRVTISRDNSKNTLYLQMNSLRAEDTAVYYCARSLARTTAMDYWGEGTLVTVSSASTKGPSVFPLAPSSKSTSGGTAALGCLVKDYFPEPVTVSWNSGALTSGVHTFPAVLQSSGLYSLSSVVTVPSSSLGTQTYICNVNHKPSNTKVDKKVEPKSCDKTHTCPPCPAPELRGGPKVFLFPPKPKDTLYITREPEVTCVVVDVSHEDPEVKFNWYVDGVEVHNAKTKPREEQYNSTYRVVSVLTVLHQDWLNGKEYKCKVSNKALPAPIEKTISKAKGQPREPQVYTLPPSRDELTKNQVSLTCLVKGFYPSDIAVEWESNGQPENNYKTTPPVLDSDGSFFLYSKLTVDKSRWQQGNVFSCSVMHEALDYHVTRKELSLSP
light: not shown
notes: EU numbering; copies: 2 + 2
B3: IgG1-F1375 (antibody)
heavy: QVQLQESGPGLVKPSETLSLTCAVSGHSISHDHAWSWVRQPPGEGLEWIGFISYSGITNYNPSLQGRVTISRDNSKNTLYLQMNSLRAEDTAVYYCARSLARTTAMDYWGEGTLVTVSSASTKGPSVFPLAPSSKSTSGGTAALGCLVKDYFPEPVTVSWNSGALTSGVHTFPAVLQSSGLYSLSSVVTVPSSSLGTQTYICNVNHKPSNTKVDKKVEPKSCDKTHTCPPCPAPELRGGPKVFLFPPKPKDTLYITRTPEVTCVVVDVSHEDPEVKFNWYVDGVEVHNAKTKPREEQYNSTYRVVSVLTVLHQDWLNGKEYKCKVSNKALPAPIEKTISKAKGQPREPQVYTLPPSRDELTKNQVSLTCLVKGFYPSDIAVEWESNGQPENNYKTTPPVLDSDGSFFLYSKLTVDKSRWQQGNVFSCSVMHEALHYHVTQKSLSLSP
light: not shown
notes: EU numbering; copies: 2 + 2
B4: IgG1-F1372 (antibody)
heavy: QVQLQESGPGLVKPSETLSLTCAVSGHSISHDHAWSWVRQPPGEGLEWIGFISYSGITNYNPSLQGRVTISRDNSKNTLYLQMNSLRAEDTAVYYCARSLARTTAMDYWGEGTLVTVSSASTKGPSVFPLAPSSKSTSGGTAALGCLVKDYFPEPVTVSWNSGALTSGVHTFPAVLQSSGLYSLSSVVTVPSSSLGTQTYICNVNHKPSNTKVDKKVEPKSCDKTHTCPPCPAPELRGGPKVFLFPPKPKDTLYITREPEVTCVVVDVSHEDPEVKFNWYVDGVEVHNAKTKPREEQYNSTYRVVSVLTVLHQDWLNGKEYKCKVSNKALPAPIEKTISKAKGQPREPQVYTLPPSRDELTKNQVSLTCLVKGFYPSDIAVEWESNGQPENNYKTTPPVLDSDGSFFLYSKLTVDKSRWQQGNVFSCSVMHEALDYHTTRKELSLSP
light: not shown
notes: EU numbering; copies: 2 + 2
B5: IgG1-F1366 (antibody)
heavy: QVQLQESGPGLVKPSETLSLTCAVSGHSISHDHAWSWVRQPPGEGLEWIGFISYSGITNYNPSLQGRVTISRDNSKNTLYLQMNSLRAEDTAVYYCARSLARTTAMDYWGEGTLVTVSSASTKGPSVFPLAPSSKSTSGGTAALGCLVKDYFPEPVTVSWNSGALTSGVHTFPAVLQSSGLYSLSSVVTVPSSSLGTQTYICNVNHKPSNTKVDKKVEPKSCDKTHTCPPCPAPELRGGPKVFLFPPKPKDTLYISREPEVTCVVVDVSHEDPEVKFNWYVDGVEVHNAKTKPREEQYNSTYRVVSVLTVLHQDWLNGKEYKCKVSNKALPAPIEKTISKAKGQPREPQVYTLPPSRDELTKNQVSLTCLVKGFYPSDIAVEWESNGQPENNYKTTPPVLDSDGSFFLYSKLTVDKSRWQQGNVFSCSVMHEALDYHFTKKELSLSP
light: not shown
notes: EU numbering; copies: 2 + 2
B6: IgG1-F1370 (antibody)
heavy: QVQLQESGPGLVKPSETLSLTCAVSGHSISHDHAWSWVRQPPGEGLEWIGFISYSGITNYNPSLQGRVTISRDNSKNTLYLQMNSLRAEDTAVYYCARSLARTTAMDYWGEGTLVTVSSASTKGPSVFPLAPSSKSTSGGTAALGCLVKDYFPEPVTVSWNSGALTSGVHTFPAVLQSSGLYSLSSVVTVPSSSLGTQTYICNVNHKPSNTKVDKKVEPKSCDKTHTCPPCPAPELRGGPKVFLFPPKPKDTLYITREPEVTCVVVDVSHEDPEVKFNWYVDGVEVHNAKTKPREEQYNSTYRVVSVLTVLHQDWLNGKEYKCKVSNKALPAPIEKTISKAKGQPREPQVYTLPPSRDELTKNQVSLTCLVKGFYPSDIAVEWESNGQPENNYKTTPPVLDSDGSFFLYSKLTVDKSRWQQGNVFSCSVMHEALDYHVTKKELSLSP
light: not shown
notes: EU numbering; copies: 2 + 2
B7: IgG1-F1373 (antibody)
heavy: QVQLQESGPGLVKPSETLSLTCAVSGHSISHDHAWSWVRQPPGEGLEWIGFISYSGITNYNPSLQGRVTISRDNSKNTLYLQMNSLRAEDTAVYYCARSLARTTAMDYWGEGTLVTVSSASTKGPSVFPLAPSSKSTSGGTAALGCLVKDYFPEPVTVSWNSGALTSGVHTFPAVLQSSGLYSLSSVVTVPSSSLGTQTYICNVNHKPSNTKVDKKVEPKSCDKTHTCPPCPAPELRGGPKVFLFPPKPKDTLYITREPEVTCVVVDVSHEDPEVKFNWYVDGVEVHNAKTKPREEQYNSTYRVVSVLTVLHQDWLNGKEYKCKVSNKALPAPIEKTISKAKGQPREPQVYTLPPSRDELTKNQVSLTCLVKGFYPSDIAVEWESNGQPENNYKTTPPVLDSDGSFFLYSKLTVDKSRWQQGNVFSCSVMHEALDYHFTKKELSLSP
light: not shown
notes: EU numbering; copies: 2 + 2
B8: IgG1-F1374 (antibody)
heavy: QVQLQESGPGLVKPSETLSLTCAVSGHSISHDHAWSWVRQPPGEGLEWIGFISYSGITNYNPSLQGRVTISRDNSKNTLYLQMNSLRAEDTAVYYCARSLARTTAMDYWGEGTLVTVSSASTKGPSVFPLAPSSKSTSGGTAALGCLVKDYFPEPVTVSWNSGALTSGVHTFPAVLQSSGLYSLSSVVTVPSSSLGTQTYICNVNHKPSNTKVDKKVEPKSCDKTHTCPPCPAPELRGGPKVFLFPPKPKDTLYITREPEVTCVVVDVSHEDPEVKFNWYVDGVEVHNAKTKPREEQYNSTYRVVSVLTVLHQDWLNGKEYKCKVSNKALPAPIEKTISKAKGQPREPQVYTLPPSRDELTKNQVSLTCLVKGFYPSDIAVEWESNGQPENNYKTTPPVLDSDGSFFLYSKLTVDKSRWQQGNVFSCSVMHEALDYHFTRKELSLSP
light: not shown
notes: EU numbering; copies: 2 + 2
B9: IgG1-F1365 (antibody)
heavy: QVQLQESGPGLVKPSETLSLTCAVSGHSISHDHAWSWVRQPPGEGLEWIGFISYSGITNYNPSLQGRVTISRDNSKNTLYLQMNSLRAEDTAVYYCARSLARTTAMDYWGEGTLVTVSSASTKGPSVFPLAPSSKSTSGGTAALGCLVKDYFPEPVTVSWNSGALTSGVHTFPAVLQSSGLYSLSSVVTVPSSSLGTQTYICNVNHKPSNTKVDKKVEPKSCDKTHTCPPCPAPELRGGPKVFLFPPKPKDTLYISREPEVTCVVVDVSHEDPEVKFNWYVDGVEVHNAKTKPREEQYNSTYRVVSVLTVLHQDWLNGKEYKCKVSNKALPAPIEKTISKAKGQPREPQVYTLPPSRDELTKNQVSLTCLVKGFYPSDIAVEWESNGQPENNYKTTPPVLDSDGSFFLYSKLTVDKSRWQQGNVFSCSVMHEALDYHTTKKELSLSP
light: not shown
notes: EU numbering; copies: 2 + 2
B10: IgG1-F1367 (antibody)
heavy: QVQLQESGPGLVKPSETLSLTCAVSGHSISHDHAWSWVRQPPGEGLEWIGFISYSGITNYNPSLQGRVTISRDNSKNTLYLQMNSLRAEDTAVYYCARSLARTTAMDYWGEGTLVTVSSASTKGPSVFPLAPSSKSTSGGTAALGCLVKDYFPEPVTVSWNSGALTSGVHTFPAVLQSSGLYSLSSVVTVPSSSLGTQTYICNVNHKPSNTKVDKKVEPKSCDKTHTCPPCPAPELRGGPKVFLFPPKPKDTLYITREPEVTCVVVDVSHEDPEVKFNWYVDGVEVHNAKTKPREEQYNSTYRVVSVLTVLHQDWLNGKEYKCKVSNKALPAPIEKTISKAKGQPREPQVYTLPPSRDELTKNQVSLTCLVKGFYPSDIAVEWESNGQPENNYKTTPPVLDSDGSFFLYSKLTVDKSRWQQGNVFSCSVMHEALHYHTTRKELSLSP
light: not shown
notes: EU numbering; copies: 2 + 2
B11: IgG1-F1363 (antibody)
heavy: QVQLQESGPGLVKPSETLSLTCAVSGHSISHDHAWSWVRQPPGEGLEWIGFISYSGITNYNPSLQGRVTISRDNSKNTLYLQMNSLRAEDTAVYYCARSLARTTAMDYWGEGTLVTVSSASTKGPSVFPLAPSSKSTSGGTAALGCLVKDYFPEPVTVSWNSGALTSGVHTFPAVLQSSGLYSLSSVVTVPSSSLGTQTYICNVNHKPSNTKVDKKVEPKSCDKTHTCPPCPAPELRGGPKVFLFPPKPKDTLYITRTPEVTCVVVDVSHEDPEVKFNWYVDGVEVHNAKTKPREEQYNSTYRVVSVLTVLHQDWLNGKEYKCKVSNKALPAPIEKTISKAKGQPREPQVYTLPPSRDELTKNQVSLTCLVKGFYPSDIAVEWESNGQPENNYKTTPPVLDSDGSFFLYSKLTVDKSRWQQGNVFSCSVMHEALDYHFTRKELSLSP
light: not shown
notes: EU numbering; copies: 2 + 2
B12: IgG1-F1368 (antibody)
heavy: QVQLQESGPGLVKPSETLSLTCAVSGHSISHDHAWSWVRQPPGEGLEWIGFISYSGITNYNPSLQGRVTISRDNSKNTLYLQMNSLRAEDTAVYYCARSLARTTAMDYWGEGTLVTVSSASTKGPSVFPLAPSSKSTSGGTAALGCLVKDYFPEPVTVSWNSGALTSGVHTFPAVLQSSGLYSLSSVVTVPSSSLGTQTYICNVNHKPSNTKVDKKVEPKSCDKTHTCPPCPAPELRGGPKVFLFPPKPKDTLYITREPEVTCVVVDVSHEDPEVKFNWYVDGVEVHNAKTKPREEQYNSTYRVVSVLTVLHQDWLNGKEYKCKVSNKALPAPIEKTISKAKGQPREPQVYTLPPSRDELTKNQVSLTCLVKGFYPSDIAVEWESNGQPENNYKTTPPVLDSDGSFFLYSKLTVDKSRWQQGNVFSCSVMHEALHYHFTKKELSLSP
light: not shown
notes: EU numbering; copies: 2 + 2
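Note: test antibodies captured on a Protein L chip with human FcRn flowed over as analyte, KD obtained as the ratio of dissociation to association rate constants.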

T1 sequence (chain, as listed by the source limits assumed, chain 1 of 2): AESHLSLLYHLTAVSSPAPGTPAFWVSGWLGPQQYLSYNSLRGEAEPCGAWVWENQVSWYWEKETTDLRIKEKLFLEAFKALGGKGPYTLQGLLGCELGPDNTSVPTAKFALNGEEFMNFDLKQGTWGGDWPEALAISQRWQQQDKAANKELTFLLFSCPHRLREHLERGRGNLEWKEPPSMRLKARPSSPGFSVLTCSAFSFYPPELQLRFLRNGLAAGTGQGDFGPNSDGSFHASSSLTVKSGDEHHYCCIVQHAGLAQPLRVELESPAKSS
T1 sequence (P61769 21-119 limits assumed, chain 2 of 2): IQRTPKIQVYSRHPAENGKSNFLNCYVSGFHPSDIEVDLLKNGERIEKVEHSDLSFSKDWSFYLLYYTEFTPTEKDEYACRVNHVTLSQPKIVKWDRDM

This experiment addresses T1, soluble human FcRn complexed with β2-microglobulin (human, UniProt P61769 21-119, limits assumed).
T1 construct: also called hFcRn
The experiment in a line: Biacore SPR, pH 7.0. (In general: SPR reads the build-up and loss of mass on a sensor chip optically.)
B1: the dissociation constant Kd (usually a measure of binding affinity in units of concentration) is 141 nM. The value for B2 was 109 nM; that for B3 was 103 nM; that for B4 was 228 nM. The value for B5 was 117 nM. Molecule B6 had a Kd of 91.4 nM. As to B7, the affinity, expressed as Kd, was 86.7 nM. In turn, B8 showed a Kd of 120 nM. Take B9: binding was characterised by a dissociation constant (Kd) of 314 nM. In the case of B10, the Kd is 179 nM. The value for B11 was 190 nM. As for B12, binding was characterised by a dissociation constant (Kd) of 54.9 nM.
